The values that follow come from article PMC10925001 (2024).

The target in the assay is covalently-linked IL-2/SD-01 complex (human, UniProt P60568 21-153). Put plainly: SPR.

B1: his-tagged human IL-2Rα (receptor)
chain: ELCDDDPPEIPHATFKAMAYKEGTMLNCECKRGFRRIKSGSLYMLCTGNSSHSSWDNQCQCTSSATRNTTKQVTPQPEEQKERKTTEMQSPMQPVDQASLPGHCREPPPWENEATERIYHFVVGQMVYYQCVQGYRALHRGPAESVCKMTHGKTRWTQPQLICTGEMETSQFPGEEKPQASPEGRPESETSCLVTTTDFQIQTEMAATMETSIFTTEYQ
Consider B1, for which the dissociation rate constant (koff) was determined as 0.0048 s⁻¹.

One may read the koff as a measure of how fast the partners let go of each other. Low readings indicate slow dissociation, high ones fast dissociation.
